Experiment: soluble on expression in E. coli; label from the status in PepcDB or PDB records

| Sequence | soluble on expression in E. coli |
| --- | --- |
| GPGSMHSTPAKEAEAEGYMRSGKKHLQKKLLQFKANYGGAAEDFDKAARIYTNLRNYPKAREAWTQACEAHSKAHNDFNAANSMEKLGDLASQCICESQSTMSSGSTAGMTAQLSEHLFQDAIHAYEEASKLYGVATNGSKQAAVLKKAADLISRSLATVHYRRPGTSGATTVDTAYLQKEYKRIIPELIELMERNWAATESKPFGLPDIYRSHVLLHLRSGDVEGAVHAEKRMIGIVSTSPADGTYDDSKNLFRILNQPSNAAKVGLEIVVLCLSTSVDDGYTWANIEMGRLGAVFGFCGSSEERAAAALLAAYAERDEDALQEALKTNTCFNFLAADVSRIAKKLTLGSKGHSKETGASVAAAGGPERSAAPPSSSQAPVDASETDSEDLR | soluble |
| MSVTFPSSGCPSFFNIFYEEGIVMKLTIYYDGQFWVGVVEVVDNGKLRAFRHLFGKEPRDSEVLEFVHNQLLNMMAQAEQEGVRLQGRRQKKINPKRLQRQVSKELKNAGVTSKAQEAIKLELEARKQKKKQIMKEQREHVKEQRYMLKKQKAKKKHRGKLEHHHHHH | soluble |
| MSLSVEQANLILNHLPMEITFVNKEDIFQYYNDNTPADEMIFKRTPSQVGRNVELCHPPKYLDKVKTIMKGLREGSKDKYEMWFKSESRGKFVHITYAAVHDEDGEFQGVLEYVQDIQPYREIDTDYFRGLEEGHHHHHH | soluble |
| LGSPMAYFVENFWGEKNSGFDVLYHNMKHGQISTKELADFVRERATIEEAYSRSMTKLAKSASNYSQLGTFAPVWDVFKTSTEKLANCHLDLVRKLQELIKEVQKYGEEQVKSHKKTKEEVAGTLEAVQTIQSITQALQKSKENYNAKCVEQERLKKEGATQREIEKAAVKSKKATDTYKLYVEKYALAKADFEQKMTETAQKFQDIEETHLIHIKEIIGSLSNAIKEIHLQIGQVHEEFINNMANTTVESLIQKFAESKGTGKERPGLIEFEECD | soluble |
| MGSDKIHHHHHHMMRALYTAATGMRAEQTNVDTIANNLSNVNTTGFKGQRTEFKSLLYQTIQTRSTSGNGDAKPVGAQVGLGTRVAATTSTYTQGPLNSTERPTDFALEGDGFFAVRGTDNQTYYTRNGAFTWSQYGNGQTILTDSQGNPVMDTNGNIIAVPAGVSAEKMSFGEDGAVGYMTAQGNYINLNQRIAVYQFNNPSGLEKQSGSLLAATANSGNPMLEIANPALKSSKVVTGYLEGSNVQVADEMVNLIVAQRAYELNSKAITTADSMLETANNLRR | not soluble |
| MKGMFTPGNGPVQISAEAIKKRVEELGGEIARDYQGKTPHLICVLNGAFIFMADLVRAIPLPLTMDFIAISSYGNAFKSSGEVELLKDLRLPIHGRDVIVVEDIVDTGLTLSYLLDYLEARKPASVRVAALLSKPSRRQVEVPIHYLGFEIEDAYVYGYGLDRAQFDRNLPFITSIRPEEE | soluble |
| MNKKNICALAVLSGLSFSAMALDCDPNLLPSWQDGASKTAIVNYVDQSTDASKKTFIPEQDRIAVFDNDGTLWSEKPYYFQLAFALDQVKNMAKEHPEWKTQEPFKSVLNNDIKNVFAGGEKALLDIVTATHSGMTVEEYQQTVAQWLEVAKDPHFNKAYTELTYKPMREMVTYLQDHDFKVYIVSGGGVDFMRTWAPEVYGIPEEQIIGSALKYKYDYNNSNPTVTKLGEILTIDDKAGKVENIQHIIGKKPVLAIGNSDGDHAMMQWATSQPNSMAMIVHHTDEAREWKYDRKSSVGHLDKAMDEANQRDNWYLIDMKNEWCTVY | soluble |

— the DeepSol protein solubility set
